Assay results as given in publication PMC10912509.

Target: ITPKB (UniProt P27987)
Test: co-immunoprecipitation, immunoblot
Settings: reference: wild-type Trim25; sites S100

binding against the reference: weaker
Substance: Trim25 (from UniProt Q14258) Trim25 S100A
